Data published in patent publication US20220002363A1, “COMPOSITIONS AND METHODS FOR TREATING PULMONARY DISEASE” (United States Government As Represented By The Department …, priority 2020, published 2022).

Assays:
[1] = target: T1, WT-sFasL (Homo sapiens, UniProt P48023); assay: Annexin-V externalization (translocation) assay in SAEC with WT:mut sFasL mixtures; format: cell-based; conditions: WT:mut sFasL molar ratios of 1:27 and 1:81
T1 construct: made in house
T1 sequence (P48023 103-281): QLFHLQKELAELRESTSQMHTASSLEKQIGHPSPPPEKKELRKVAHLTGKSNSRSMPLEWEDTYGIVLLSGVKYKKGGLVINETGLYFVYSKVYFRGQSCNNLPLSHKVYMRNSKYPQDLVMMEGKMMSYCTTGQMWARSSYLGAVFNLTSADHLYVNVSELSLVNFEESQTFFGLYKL
Experimental: FIGS. 2A-D show the mut-sFasL has inhibitory properties. Highly Fas-sensitive Jurkat cells (FIG. 2A), primary human lung small airway epithelial cells (SAEC, FIG. 2B) or murine lung epithelial cells (LA4, FIG. 2D) were incubated with serial dilutions of mutated FasL, (mut sFasL). […] As a confirmatory test, the experiment was repeated using SAEC and an annexin-V translocation assay (FIG. 2C). WT=wild type (no mutant). […] Each dot represents individual data; lines represent means±SD. *=P<0.05; **=P<0.01, ***P<0.001 when compared to WT. One way ANOVA with SIdak's post hoc analysis. […]
Measurements of apoptotic cascade activation. Apoptotic cascade activation was assessed by determining caspase 3/7 activity and Annexin V externalization. Caspase-3/7 activity was measured using a commercial substrate (Caspase-Glo 3/7 Assay, Promega, Madison, Wis., Cat #G8090) following manufacturer's instructions. Annexin V was measured with a luminescent commercial assay that allows for measurement of annexin V externalization in adherent cells (RealTime-Glo Annexin V assay, Promega, Madison, Wis., Cat #JA1011). Luminescence was measured with a Synergy H4 Microplate Reader (BioTek, Winooski, Vt.). […]

[2] = target: T2, recombinant human Fas (Homo sapiens, UniProt P25445); assay: Competition assay: binding of biotinylated WT sFasL to plate-coated recombinant human Fas; conditions: biotinylated WT-sFasL 70 ng/mL, Fas coated at 250 ng/mL, serial 3-fold dilutions
T2 construct: recombinant human soluble Fas receptors (PeproTech, Rocky Hill, N.J.); purchased PeproTech
T2 sequence (P25445 26-173 limits assumed): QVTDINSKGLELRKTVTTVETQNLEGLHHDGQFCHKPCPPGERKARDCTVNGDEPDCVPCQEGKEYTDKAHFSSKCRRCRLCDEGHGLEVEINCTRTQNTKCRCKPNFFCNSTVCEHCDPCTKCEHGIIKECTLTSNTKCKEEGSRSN
Experimental: The mixtures were incubated for 2 hours in 96-well plates pre-coated with recombinant hsFas (250 ng/ml). After washing unbound material, biotin was detected using HRP conjugated Streptavidin. […] The sFasL bound to Fas was detected using polyclonal anti-human FasL antibodies. […] Different molar ratios of the Fas-activating antibody CH-11 and mut-sFasL were added, and caspase 3/7 activity measured after 5 hours. […] Data represent the results from three separate experiments, each done in duplicate, and were analyzed by 2-way ANOVA with Sidak's post hoc analysis. […] Each dot represents individual data; lines represent means±SD. *=P<0.05; **=P<0.01, ***P<0.001.
Antibodies and Reagents. […] FLAG tagged mut-sFasL was detected using HRP anti-FLAG monoclonal antibody (Sigma-Aldrich, Cat #A85920). […]
WT-sFasL inhibition occurs prior to receptor binding. […] Recombinant human Fas at 250 ng/mL were coated and the binding of a fixed concentration of biotinylated WT-sFasL (70 ng/mL) were measured in the presence of serial 3-fold dilutions of either WT-sFasL or mut-sFasL. […] Serial dilutions of either WT-sFasL or mut-sFasL were incubated in wells coated with recombinant human Fas, 5 μg/mL, and after washing, detected sFasL bound to Fas using polyclonal anti-FasL antibodies. […]

[3] = target: T1, WT-sFasL; assay: Attenuation of WT-sFasL-induced caspase 3/7 activity in primary human small airway epithelial cells (SAEC); format: cell-based; conditions: for inhibitory effect on ability of WT-sFasL to induce caspase 3-7 activity: at higher molar ratios than in Jurkat
Experimental: FIGS. 2A-D show the mut-sFasL has inhibitory properties. Highly Fas-sensitive Jurkat cells (FIG. 2A), primary human lung small airway epithelial cells (SAEC, FIG. 2B) or murine lung epithelial cells (LA4, FIG. 2D) were incubated with serial dilutions of mutated FasL, (mut sFasL). […] As a confirmatory test, the experiment was repeated using SAEC and an annexin-V translocation assay (FIG. 2C). WT=wild type (no mutant). […] Each dot represents individual data; lines represent means±SD. *=P<0.05; **=P<0.01, ***P<0.001 when compared to WT. One way ANOVA with SIdak's post hoc analysis.
Small airway epithelial cells (SAEC) are primary human cells isolated from the 1-mm bronchiole area of normal human lung tissue, and were purchased from Lonza (Walkersville, Md., catalogue number CC-2547, lot number 0000669507). Cells used came from a single donor and confirmed mycoplasma-free by the vendor. Cells were grown at 37° C., 5% CO2 in small airway epithelial basal medium (SAGM, Lonza, Cat #CC-3119 CC-3119) supplemented with SAGM SingleQuots (Lonza, catalogue number CC-4124), and used between passages 2 and 4.
Measurements of apoptotic cascade activation. Apoptotic cascade activation was assessed by determining caspase 3/7 activity and Annexin V externalization. Caspase-3/7 activity was measured using a commercial substrate (Caspase-Glo 3/7 Assay, Promega, Madison, Wis., Cat #G8090) following manufacturer's instructions. Annexin V was measured with a luminescent commercial assay that allows for measurement of annexin V externalization in adherent cells (RealTime-Glo Annexin V assay, Promega, Madison, Wis., Cat #JA1011). Luminescence was measured with a Synergy H4 Microplate Reader (BioTek, Winooski, Vt.).
The mut-sFasL attenuates the activity of WT-sFasL. Then, the caspase 3/7 activity of Jurkat cells incubated with different molar ratios of WT and mut-sFasL was investigated. […] The molar mixtures on primary human small airway epithelial cells (SAEC) were tested. These cells are commercially isolated from the distal airways of human lungs. […]

Annexin V translocation [1]: significantly reduced | inhibitory effect on ability of WT-sFasL to induce caspase 3-7 activity [3]: inhibitory effect
B1: mut-sFasL: mutant sFasL molecule in which 8 charged amino acids in the 26 amino acid stalk region were changed to alanine (protein)
chain: QLFALQAALAALAASTSQMATASSLAKQIGHPSPPPEKKELRKVAHLTGKSNSRSMPLEWEDTYGIVLLSGVKYKKGGLVINETGLYFVYSKVYFRGQSCNNLPLSHKVYMRNSKYPQDLVMMEGKMMSYCTTGQMWARSSYLGAVFNLTSADHLYVNVSELSLVNFEESQTFFGLYKL
effect of increasing competitor concentration on binding of biotinylated WT-sFasL to Fas [2]: little effect on binding of biotinylated WT-sFasL, except at very high doses | caspase 3/7 activity ([3]; WT:mut sFasL molar ratios of 1:27 and 1:81): significantly reduced caspase 3/7 activity | inhibitory effect on ability of WT-sFasL to induce caspase 3-7 activity ([3]; listed as 8-mutant protein): an inhibitory effect of the 8-mutant protein was detected
